Source: publication PMC7527728, “CPSF6-Dependent Targeting of Speckle-Associated Domains Distinguishes Primate from Nonprimate Lentiviral Integration” (mBio, 2020)
Primed or numbered codes have the meaning given here. Ends that are not written are not given here. FITC′ = fluorescein isothiocyanate label; Ahx = NCCCCCC(=O)O

B1: EIAV capsid N-terminal domain (NTD) protein (domain or fragment)
chain: PIMIDGAGNRNFRPLTPRGYTTWVNTIQTNGLLNEASQNLFGILSVDCTSEEMNAFLDVVPGQAGQKQILLDAIDKIADDWDNRHPLPNAPLVAPPQGPIPMTARFIRGLGVPRERQMEPAFDQFRQTYRQWIIEAMSEGIKVMIG
B2: FIV capsid N-terminal domain (NTD) protein (domain or fragment)
chain: PIQTVNGVPQYVALDPKMVSIFMEKAREGLGGEEVQLWFTAFSANLTPTDMATLIMAAPGCAADKEILDESLKQLTAEYDRTHPPDAPRPLPYFTAAEIMGIGLTQEQQAEARFAPARMQCRAWYLEALGKLAAIKA
B3: MLV capsid N-terminal domain (NTD) protein (domain or fragment)
chain: PLRAGGNGQLQYWPFSSSDLYNWKNNNPSFSEDPGKLTALIESVLITHQPTWDDCQQLLGTLLTGEEKQRVLLEARKAVRGDDGRPTQLPNEVDAAFPLERPDWDYTTQAGRNHLVHYRQLLLAGLQNAGRS
B4: BIV capsid N-terminal domain (NTD) protein (domain or fragment)
chain: PAITTQDGTPRFDPDLMKQLKIWSDATERNGVDLHAVNILGVITANLVQEEIKLLLNSTPKWRLDVQLIESKVREKENAHRTWKQHHPEAPKTDEIIGKGLSSAEQATLISVECRETFRQWVLQAAMEVAQAKHATPG

Assays:
Test in all cases: fluorescence polarisation; 150 nM FITC-Ahx-labelled peptide mixed with increasing capsid NTD protein (2 μM to 2 mM) in 50 mM Tris-HCl pH 8.0, 50 mM NaCl, 384-well plates; one-site specific binding model; the EIAV constants are called apparent
Conditions in all cases: both partners purified
[1] = target: T1, CPSF6_(276–290/F284A) peptide (human, F284A (stands in the printed letters))
T1 construct: cleavage and polyadenylation specificity factor 6 (CPSF6), human, residues 276-290 counted on the 551-residue isoform CPSF6[551], with F284A; source: synthetic peptide (GenScript)

CPSF6_(276–290) peptide [2] = target: T2, CPSF6_(276–290) peptide (human, N-terminal fluorescein isothiocyanate (FITC)-Ahx)
T2 construct: also called CPSF6 peptide; fluorescently labeled CPSF6_(276–290) peptide; source: synthetic peptide (GenScript)

CPSF6_(276–290) peptide [3] = target: T2, CPSF6_(276–290) peptide; remark: listed apart in the source

| Binder | Kd [1] | Kd (CPSF6_(276–290) peptide [2]) | Kd (CPSF6_(276–290) peptide [3]) |
| --- | --- | --- | --- |
| B1 | 466 µM |  |  |
| B2 | > 7000 µM | > 2000 µM | > 4000 µM |
| B3 |  | > 2000 µM | > 5000 µM |
| B4 | > 3000 µM | > 2000 µM | > 5000 µM |
